In this assay the target is Full-length human importin-α1 (h-importin-α1) (1–526) (human, UniProt P52292 1-526). In words: ITC. Conditions: both partners purified.

Drawing on publication PMC4319847 (PLoS ONE, 2015), this text covers Kd for one molecule.

Usually Kd stands for the constant that tells how readily two partners part at equilibrium. Read a low Kd as tighter binding. In turn, PKKKRKV (source: synthetic peptide) [SV40 NLS peptide (PKKKRKV)] returned a Kd of 102 ± 11 µM.
